The results in this text go back to patent US20040018198A1 (Amgen, published 2004).

Substitutions are numbered along the chain they refer to.

B1: AB-MN-XG1-051 (antibody, human IgG1, V domains shown)
VH: EVQLVEFGGGLVKPGGSLRLSCAASGFTFSSFRMNWVRQAPGEGLEWVSSITSSSSYIYYADSVKGRFTISRDNAKNSLYLQMNSLRAEDTAVYYCARFTAMALDYWGQGTLVTVSS
VL: DIQMTQSPSSLSASVGDRVTITCRASQGIFNYLAWYQQKPGKVPKLLIYAASTLQSGVPSRFSGSGSGTDFTLTISSLQPEDVAVYYCLKYNSAPWTFGQGTKVEIK
notes: also called MN51; AB-MN-XG1-51
B2: AB-MN-22.15 (antibody, human IgG2, V domains shown)
VH: QVQLQESGPGLVKPSQTLSLTCTVSGGSISSGGYYWSWIRQHPGKGLEWIGYIYYSGYTYYNPSLKSRVTISVDTSKNQFSLKLSSVTAADTAVYYCARDRYYDILTGYYNYGMDVWGQGTTVTVSS
VL: not shown
notes: also called AX014H22-15
B3: AB-MN-22.8.1 (antibody, human IgG2, V domains shown)
VH: SGPGLVKPSETLSLTCTVSGGSISSYYWSWIRQPPGKGLEWIGYIYYSGSTNYNPSLKSRVTISVDTSKNQFSLKLTSVTAADTAVYYCARDQHSSSVYYYYYGMDVWGQGTTVTVSS
VL: ETQLTQSPGTLSLSPGERATLSCRASQSIYINYLAWYQQKPGQAPRLLISGASSRATGIPDRFSGSGSGTDFTLTISRLEPEDFAVYYCQQYGRSLTFGGGTEVEIKR
notes: also called AX014H22-8-1
B4: AB-MN-22.13.1 (antibody, human IgG2, V domains shown)
VH: RVQLVESGGGLVQPGGSLRLSCAASGFTFSRYSMNWVRQAPGKGLEWVSYISSSSSTIYYADSVKGRFTISRDSAKNSLYLQMNSLRDEDTAVYYCARSLRSGGMDVWGQGTTVTVSS
VL: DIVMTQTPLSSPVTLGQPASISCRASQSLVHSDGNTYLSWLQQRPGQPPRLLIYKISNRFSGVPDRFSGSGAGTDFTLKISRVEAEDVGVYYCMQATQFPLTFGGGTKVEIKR
notes: also called AX014H22-13-1
B5: AB-MN-21.6.1 (antibody, human IgG1, V domains shown)
VH: QVQLQESGPGLVKPSQTLSLTCTVSGGSISSGGYYWSWIRQHPGKGLEWIGYIYYSGSTYYNPSLKSRVTISVDTSKNQFSLKLSSVTAADTAVYYCARAGKYYGSGSYLDYWGQGTLVTVSS
VL: not shown
notes: also called AX014H21-6-1
B6: AB-MN-21.5.2 (antibody, V domains shown)
VH: B5 VH with Q5E, E6Q, Y34R, V73I, K102T
VL: not shown
notes: also called 21.5.2 n; AX014H21-5-2
B7: AB-MN-XG1-023 (antibody, human IgG1, V domains shown)
VH: QVQLQESGPGLVKPSQTLSLTCTVSGGSISSGGYYWSWIRQHPGKGLEWIGYIYYSGSTYYNPSLKSRVTISVDTSKNQFSLKLSSVTAADTAVYYCARENYDILTGFNWFDPWGQGTLVTVSS
VL: DIQMTQSPSSVSASVGDRVTITCRASQGISSWLAWYQQKPGKAPKVLIYSTSRLQSGVPSRFSGSGSGTDFTLTISSLQPEDFATYYCQQADSFRTFGQGTKVEIK
notes: also called MN23; AB-MN-XG1-23
B8: AB-MN-21.10.1 (antibody, human IgG1, V domains shown)
VH: QLEQSGPGLVKPSETLSLTCTVSDGSISSSSYYWGWIRQPPGKGLEWIGSIYYSGSTYYNPSLKSRVTISVDTSKNQFSLKLSSVTAADTAVYYCARHGSFFDYWGQGTLVTVSS
VL: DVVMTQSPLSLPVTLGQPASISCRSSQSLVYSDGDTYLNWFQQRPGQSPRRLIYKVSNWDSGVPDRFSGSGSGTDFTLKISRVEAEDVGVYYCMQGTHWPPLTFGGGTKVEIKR
notes: also called 21.10.1 g; AX014H21-10-1
B9: AB-MN-XG1-080 (antibody, human IgG1, V domains shown)
VH: QVQLQESGPGLVKPSETLSLTCTVSGGSISSYYWSWIRQPPGKGLEWIGYIYYSGSTNYNPSLKSRVTISVDTSKNQFSLKLSSVTAADTAVYYCARDTRTIFGVVSGMDVWGQGTTVTVSS
VL: EIVLTQSPGTLSLSPGERATLSCRASQSVYSSYLAWYQQKPGQAPRLLIYGASSRAPGIPDRFSGSGSGTDFTLTISRLEPEDFAVYYCQHYGRSLTFGGGTKVEIK
notes: also called MN80
B10: AB-MN-22.19 (antibody, human IgG2, V domains shown)
VH: QVQLQESGPGLVKPSETLSLTCTVSGGSISFYYWNWIRQPAGKGLEWVGRIYTSGSTNYNPSLKSRVTMSVDTSKNQFSLKLSSVTAADTAVYYCARGGFLEWDYYYGMDVWGQGTTVTVSS
VL: B9 VL with Y30S, S31V, S32T, P57T, H91Q, R94S, L96V
notes: also called AX014H22-19
B11: AB-MN-XG1-141 (antibody, human IgG1, V domains shown)
VH: B9 VH with T23S, K75N, Q77H
VL: B9 VL with A25T, S28T, S32T, P57T, Y87F
notes: also called MN141
B12: AB-MN-22.7 (antibody, human IgG2, V domains shown)
VH: QVQLVESGGGVVQPGRSLRLSCAASGFTFSSYGMHWVRQAPGKGLEWVAVISYDGSNKYYADSVKGRFTFSRDNSKNTLYLQMNSLRAEDTAVYYCARRGITMVRGAPSYYGMDVWGQGTTVTVSS
VL: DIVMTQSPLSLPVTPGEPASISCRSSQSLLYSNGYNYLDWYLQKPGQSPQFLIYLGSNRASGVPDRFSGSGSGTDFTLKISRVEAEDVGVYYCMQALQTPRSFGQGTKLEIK
notes: also called AX014H22-7
B13: AB-MN-21.1.1 (antibody, human IgG1, V domains shown)
VH: QVQLQESGPGLVKPSETLSLTCTVSGGSISSYYWSWIRQPPGKGLEWIGYIYYSGSTNYNPSLKSRVTISVDTSKNQFSLKLSSVTAADTAVYYCARRGYDILTGYDYFDYWGQGTLVTVSS
VL: DIQMTQSPSSVSASVGDRVTITCRASQGISIWLTWYQQKPGKAPKLLIYAASSLQSGVPSRFSGSGSGTDFTLTISSLQPEDFATYYCQQANSFPITFGQGTRLEIK
notes: also called 21.1.1 a; AX014H21-1-1
B14: AB-MN-22.12 (antibody, human IgG2, V domains shown)
VH: QVQLQESGPGLVKPSETLSLTCTVSGGSISSYYWSWIRQPPGKGLEWIGYIYSSGSTNYNPSLKSRVTISVDTSKNQFSLKLSSVTAADTAVYYCARDQHSSSFYYYYYGMDVWGQGTTVTVSS
VL: B13 VL with I31S, T34A, I96L, Q100P, R103K, L104V, E105D
notes: also called AX014H22-12
B15: AB-MN-22.17 (antibody, human IgG2, V domains shown)
VH: B13 VH
VL: B13 VL
notes: also called AX014H22-17
B16: AB-MN-21.14.1 (antibody, human IgG1, V domains shown)
VH: B13 VH with I102F
VL: B13 VL with I31S, T34A, Y36F
notes: also called 21.14.1 j; AX014H21-14-1
B17: AB-MN-21.17.1 (antibody, human IgG1, V domains shown)
VH: QVQLQESGPGLVKPSETLSLTCTVSGGSISSYYWSWIRQPAGKGLEWIGRIYTSGSTNYNPSLKSRVTMSVDTSKNQFSLKLSSVTAADTAVYYCARDGQWLEDYGMDVWGQGTTVTV
VL: EIVLTQSPGTLSLSPGERATLSCWASQSVFSNYLAWYQQKPGQAPRLLIYGASSRATGIPDRFSGSGSGTDFPLTISRLEPEDFAVYYCQQYGSSPLTFGGGTKVEIK
notes: also called 21.17.1 I; AX014H21-17-1
B18: AB-MN-21.2.1 (antibody, human IgG1, V domains shown)
VH: QVQLQESGPGLVKPSQTLSLTCTVSGGSISSGGYYWNWIRQHPGKGLEWIGYIYYSGSTYYNPSLKSRVTISVDTSKNQFSLKLSSVTAADTAVYYCARTYYDILTGYPDAFDIWGQGTMVTVSS
VL: DIQMTQSPSSLSASVGDRVTITCRASQDIRNDLGWYQQKPGKAPKRLICAASSLQSGVPSSFSGSGSGTEFTLTISSLQPEDFATYYCLQHNSYPWTFGQGTKVEIK
notes: also called AX014H21-2-1
B19: AB-MN-22.25 (antibody, human IgG2, V domains shown)
VH: QLQLQESGPGLVKPSETLSLTCTVSDGSISSSSYYWGWIRQPPGKGLEWIGSIYYSGSTYYNPSLKSRVTISVDTSKNQFSLKLSSVTAADTAVYYCARHGSFFDYWGQGTLVTVSS
VL: B18 VL with D28G, C49Y, S61R, A84T, H91Y, N92K
notes: also called AX014H22-25
B20: AB-MN-22.28.1 (antibody, human IgG2, V domains shown)
VH: QVQLEQSGGGLVQPGGSLRLSCAASGFTFSSYAMSWVRQAPGKGLEWVSAISGSGGGTYYADSVKGRFTISRDNSKNTLYLQMNSLRAEDTAVYYCASGRYYYYYDMDVWGQGTTVTVSS
VL: B18 VL with Q3R, M4L, D28G, C49Y, S61R, W96L, Q100G
notes: the numbering there is inconsistent; also called AX014H22-28-1
B21: AB-MN-22.14 (antibody, human IgG2, V domains shown)
VH: QVQLQESGPGLVKPSETLSLTCTVSGGSVISGGYYWSWIRQPPGKGLEWIGYIYYSGSSNYNPSLKSRVTISVDASKNQFSLRLSSVTAADTAVYYCARSMVRGVSFDYWGQGTLVTVSS
VL: B18 VL with D28G, C49Y, S61R, W96L, Q100G
notes: also called AX014H22-14
B22: AB-MN-22.18 (antibody, human IgG2, V domains shown)
VH: B18 VH
VL: B18 VL
notes: also called AX014H22-18
B23: AB-MN-22.20 (antibody, human IgG2, V domains shown)
VH: B18 VH with Y34S, N37T, S58N
VL: B18 VL with D28G, C49Y, S61R, A84T, H91Y, N92K
notes: also called AX014H22-20

For one assay, the target named is CA-IX-His-ECD (his-V5 tagged version of the CA IX protein, extracellular domain) (human, UniProt Q16790 38-414). The assay can be described thus: ELISA on CA-IX-His-ECD.
In turn, B1 registered an OD of 2.47 OD.

With B2, the OD was 0.831 OD. The same measure, in the same setting: then B3, with 2.41 OD; and B4, with 1.85 OD; and B5, with 0.618 OD. In the case of B6, the OD was 0.893 OD. The molecule B7 had an OD of 2.22 OD. The same measure, in the same setting: as for B8, the figure is 0.059 OD.

Molecule B9 registered an OD of 2.71 OD. The same measure, in the same setting: as for B10, the figure is 2.12 OD; as for B11, 2.56 OD; as for B12, 0.097 OD. Still for that read-out and setting: as for B13, the figure is 1.64 OD; as for B14, 2.38 OD.

Consider B15, for which the OD came to 2.16 OD.

For the molecule B16, the OD is 1.78 OD. The same measure, in the same setting: as for B17, the figure is 1.85 OD. B18 came in with an OD of 1.21 OD.

In the case of B19, the OD amounted to 1.84 OD. B20 registered an OD of 0.404 OD. Same read-out and setting: then B21, with 0.763 OD; and B22, with 2.23 OD. On the same count and under the same terms, as for B23, the figure is 1.72 OD.

The next assay addresses CA IX catalytic domain protein (CA9-CD) (human, UniProt Q16790 138-391). The assay can be described thus: ELISA on CA9-CD (catalytic domain).
With B1, the OD worked out at 2.88 OD. The same measure, in the same setting: as for B2, the figure is 2.53 OD. Same read-out and setting: then B3, with 2.77 OD; and B4, with 0.118 OD. Same read-out and setting: then B5, with 2.25 OD; and B6, with 2.43 OD. Regarding B7, the OD turned out to be 2.42 OD.

As for B9, the OD is 2.85 OD.

In the case of B10, the OD came out at 3.01 OD.

B11 came in with an OD of 2.56 OD.

Molecule B12 returned an OD of 0.715 OD. The same measure, in the same setting: as for B13, the figure is 2.5 OD; as for B14, 2.58 OD; as for B15, 2.57 OD. B16 had an OD of 2.47 OD. Molecule B17 showed an OD of 2.66 OD.

On to B18, for which the OD came out at 2.48 OD. Consider B19, for which the OD is 2.48 OD. As to B20, the OD worked out at 2.54 OD. Still for that read-out and setting: as for B21, the figure is 2.03 OD. Consider B22, for which the OD was 2.75 OD. The same measure, in the same setting: as for B23, the figure is 2.71 OD.
